The target in this test is T1, HLA-A*02 (Homo sapiens, UniProt P04439, D140Y/D185E/D98H/E176V/E277Q/G131W/G231S/I119V/I121R/I166T/I218V/L300P/N151K/N90K/P208A/P217A/Q86G/Q94H/R138H/R169H).
T1 construct: made in house
Description: MHC binding assay, UV-ligand exchange with beta2m ELISA (peptide exchange yield). The settings on record: binding to HLA-A*02. An excerpt: Candidate peptides for T cell based therapies according to the present invention were further tested for their MHC binding capacity (affinity). The individual peptide-MHC complexes were produced by UV-ligand exchange, where a UV-sensitive peptide is cleaved upon UV-irradiation, and exchanged with the peptide of interest as analyzed. Only peptide candidates that can effectively bind and stabilize the peptide-receptive MHC molecules prevent dissociation of the MHC complexes. To determine the yield of the exchange reaction, an ELISA was performed based on the detection of the light chain (β2m) of stabilized MHC complexes. The assay was performed as generally described in Rodenko et al. (Rodenko et al., 2006).
96 well MAXISorp plates (NUNC) were coated over night with 2 ug/ml streptavidin in PBS at room temperature, washed 4× and blocked for 1h at 37° C. in 2% BSA containing blocking buffer. Refolded HLA-A*02:01/MLA-001 monomers served as standards, covering the range of 15-500 ng/ml. Peptide-MHC monomers of the UV-exchange reaction were diluted 100 fold in blocking buffer. Samples were incubated for 1h at 37° C., washed four times, incubated with 2 ug/ml HRP conjugated anti-32m for 1h at 37° C., washed again and detected with TMB solution that is stopped with […]. Absorption was measured at 450 nm. Candidate peptides that show a high exchange yield (preferably higher than 50%, most preferred higher than 75%) are generally preferred for a generation and production of antibodies or fragments thereof, and/or T cell receptors or fragments thereof, as they show sufficient avidity to the MHC molecules and prevent dissociation of the MHC complexes.
(In general: In an ELISA, binding on a coated surface is turned into a signal by an enzyme label.)
On to “79 (VTFKEYVTV; listed as Homo sapiens) [compound 79]”, for which the “Peptide exchange (MHC class I binding score, peptide exchange yield)” value (from here on “Peptide exchange”) was “++ (20%-49% = ++)”.
“80 (KLYEADFVL; listed as Homo sapiens) [compound 80]”: the “Peptide exchange” value was “++ (20%-49% = ++)”.
On to “81 (NALDKVLSV; listed as Homo sapiens) [compound 81]”, for which the “Peptide exchange” value was “+++ (50%-75% = +++)”.
As to “82 (FIFDEAEKL; listed as Homo sapiens) [compound 82]”, the “Peptide exchange” value was “+ (<20% = +)”.
For “83 (GQASYFYVA; listed as Homo sapiens) [compound 83]”, the “Peptide exchange” value is “++ (20%-49% = ++)”.
Regarding “84 (ALCPRIHEV; listed as Homo sapiens) [compound 84]”, the “Peptide exchange” value is on record as “++++ (> = 75% = ++++)”.
As for “85 (VLNDILVRA; listed as Homo sapiens) [compound 85]”, the “Peptide exchange” value was “+++ (50%-75% = +++)”.
The same measure for “86 (SVDSHFQEV; listed as Homo sapiens) [compound 86]”: “++ (20%-49% = ++)”.
The same measure for “87 (TIYKDFVYI; listed as Homo sapiens) [compound 87]”: “++ (20%-49% = ++)”; for “88 (AQADHLPQL; listed as Homo sapiens) [compound 88]”: “++ (20%-49% = ++)”.
The same measure for “89 (QLAPVFQRV; listed as Homo sapiens) [compound 89]”: “++ (20%-49% = ++)”; for “94 (LLLPAVPVGA; listed as Homo sapiens) [compound 94]”: “+++ (50%-75% = +++)”; for “95 (GLLGSLFFL; listed as Homo sapiens) [compound 95]”: “++++ (> = 75% = ++++)”.
On to “98 (RLFPDFFTRVAL; listed as Homo sapiens) [compound 98]”, for which the “Peptide exchange” value is “++ (20%-49% = ++)”.
With “99 (YLLQSVNQLLL; listed as Homo sapiens) [compound 99]”, the “Peptide exchange” value is “++ (20%-49% = ++)”.
Turning to “100 (ALLGMIIVGV; listed as Homo sapiens) [compound 100]”, the “Peptide exchange” value is recorded as “+ (<20% = +)”.
For “101 (ALADFMLSL; listed as Homo sapiens) [compound 101]”, the “Peptide exchange” value is “+++ (50%-75% = +++)”.
Turning to “102 (VLLDIQEVFQI; listed as Homo sapiens) [compound 102]”, the “Peptide exchange” value is on record as “+++ (50%-75% = +++)”.
With “103 (YLVSEIFKA; listed as Homo sapiens) [compound 103]” the entry was “+++ (50%-75% = +++)”; with “104 (ALISWQPPRA; listed as Homo sapiens) [compound 104]”, “+++ (50%-75% = +++)”; with “105 (ALLGTKILL; listed as Homo sapiens) [compound 105]”, “+++ (50%-75% = +++)”.
On to “106 (FINDSIVYL; listed as Homo sapiens) [compound 106]”, for which the “Peptide exchange” value is “+++ (50%-75% = +++)”.
With “107 (LLVPTSGIYFV; listed as Homo sapiens) [compound 107]” the entry was “+++ (50%-75% = +++)”; with “108 (ILLKNLVTI; listed as Homo sapiens) [compound 108]”, “++ (20%-49% = ++)”; with “109 (SLDPSVTHL; listed as Homo sapiens) [compound 109]”, “++ (20%-49% = ++)”.

The values are drawn from patent US10143730B2, “Peptides and combination of peptides for use in immunotherapy against various cancers” (immatics biotechnologies GmbH, priority 2015, dated 2018).
